Earlier results in publication PMC12207913.

Target: E6AP (Homo sapiens) (UniProt Q05086)
Assay: SPR

Sequence of UniProt Q05086 (Q05086 whole entry): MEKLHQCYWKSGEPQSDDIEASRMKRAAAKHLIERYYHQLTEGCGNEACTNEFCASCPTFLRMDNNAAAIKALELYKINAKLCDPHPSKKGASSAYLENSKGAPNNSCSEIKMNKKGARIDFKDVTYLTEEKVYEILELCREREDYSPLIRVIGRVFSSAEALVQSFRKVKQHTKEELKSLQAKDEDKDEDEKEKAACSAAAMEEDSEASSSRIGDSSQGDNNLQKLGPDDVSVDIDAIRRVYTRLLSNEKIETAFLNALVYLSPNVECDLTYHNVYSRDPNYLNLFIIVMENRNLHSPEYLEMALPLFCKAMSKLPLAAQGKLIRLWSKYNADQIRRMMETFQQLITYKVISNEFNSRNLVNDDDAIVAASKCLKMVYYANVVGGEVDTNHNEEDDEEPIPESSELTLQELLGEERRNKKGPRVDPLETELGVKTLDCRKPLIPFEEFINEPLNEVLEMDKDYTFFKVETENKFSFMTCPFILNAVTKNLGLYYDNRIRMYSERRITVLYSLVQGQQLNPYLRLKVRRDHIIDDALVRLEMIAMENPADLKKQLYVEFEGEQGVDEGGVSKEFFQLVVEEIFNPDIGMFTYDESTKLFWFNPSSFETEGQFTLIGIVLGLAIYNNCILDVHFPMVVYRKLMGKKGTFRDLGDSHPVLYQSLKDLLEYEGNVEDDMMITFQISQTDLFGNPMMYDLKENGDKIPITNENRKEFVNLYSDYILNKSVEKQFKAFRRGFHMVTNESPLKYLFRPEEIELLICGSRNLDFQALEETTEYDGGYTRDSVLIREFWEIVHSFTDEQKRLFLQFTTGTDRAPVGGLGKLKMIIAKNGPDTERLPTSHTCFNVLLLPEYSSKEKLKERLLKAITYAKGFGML

Substance: HPV16 E6 (from UniProt P03126)
- Kd: 0.144 nM
